From US20110097715, “METHOD FOR PURIFYING OR DETECTING A TARGET PROTEIN” (LFB - BIOTECHNOLOGIES, published 2011) come the findings set out here.

For series [1], the target named is human plasma-derived factor VII (HP FVII) (Homo sapiens, UniProt P08709 P08709:61-466). As to the kind of experiment: SPR; Hepes 20 mM pH 8, NaCl 50 mM, CaCl2 2 mM, BSA 0.01%; aptamer immobilized via 3'-biotin on SA chip; allosteric binding model; FVII 50-400 nM. Conditions: tags: plasma-derived, purity 99%; label: 3'-biotin. The source says: (§1) This aptamer is modified at the 3′-end thereof by grafting a biotin. Nucleotide bases in bold (SEQ no 1) are 2′O-methylated, which makes it possible to stabilize the aptamer by making it more resistant to nucleases. The aptamer was then immobilized onto an avidin-containing SA chip (Biacore GE). The aptamer was thus immobilized in an oriented manner through the 3′-end thereof with an immobilization rate of 2700 RU (where 1 RU does approximately correspond to 1 pg of immobilized product per mm²).
Chain of human plasma-derived factor VII (HP FVII) (P08709 61-466, one chain of several): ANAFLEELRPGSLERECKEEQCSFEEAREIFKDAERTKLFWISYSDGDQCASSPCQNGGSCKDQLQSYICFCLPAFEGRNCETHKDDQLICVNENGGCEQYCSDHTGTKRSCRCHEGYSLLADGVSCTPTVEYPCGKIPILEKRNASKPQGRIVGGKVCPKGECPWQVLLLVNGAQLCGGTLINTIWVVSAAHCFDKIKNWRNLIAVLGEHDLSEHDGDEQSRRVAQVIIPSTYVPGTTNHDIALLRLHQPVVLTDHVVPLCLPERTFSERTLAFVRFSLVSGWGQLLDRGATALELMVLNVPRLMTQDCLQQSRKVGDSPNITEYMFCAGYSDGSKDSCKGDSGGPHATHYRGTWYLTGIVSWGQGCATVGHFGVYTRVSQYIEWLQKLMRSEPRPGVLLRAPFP
Some purified, human plasma-derived factor VII (HP FVII, purity: 99%) was diluted in run buffer (Hepes 20 mM pH=8, NaCl 50 mM, CaCl₂ 2 mM and BSA 0.01%) so as to obtain four samples with human plasma-derived factor VII concentration levels of 50, 100, 200 and 400 nM. Each sample was injected sequentially into the same immobilized aptamer-containing chip through a biotin-streptavidin interaction. Controls are obtained by injecting blanks which only contained the run buffer. All injections are performed at a flow rate of 20 μl/min for 120 sec, after injection of the run buffer into the chip at the same flow rate for 240 sec. […] A binding to the immobilized aptamer generates a signal increase expressed in resonance unit (RU) recorded by the device (FIG. 1). […] The modelling of the recorded interactions was made by means of the Biaevaluation software (GE).
A general note: SPR reads the build-up and loss of mass on a sensor chip optically.

Series [2] deals with rabbit plasma-derived factor VII (Oryctolagus cuniculus, UniProt P98139 P98139:40-444). In words: SPR; complete absence of binding at 50-400 nM; same buffer (CaCl2 2 mM). The following applies: tags: American Diagnostica; label: 3'-biotin.
Chain of rabbit plasma-derived factor VII (P98139 40-444, one chain of several): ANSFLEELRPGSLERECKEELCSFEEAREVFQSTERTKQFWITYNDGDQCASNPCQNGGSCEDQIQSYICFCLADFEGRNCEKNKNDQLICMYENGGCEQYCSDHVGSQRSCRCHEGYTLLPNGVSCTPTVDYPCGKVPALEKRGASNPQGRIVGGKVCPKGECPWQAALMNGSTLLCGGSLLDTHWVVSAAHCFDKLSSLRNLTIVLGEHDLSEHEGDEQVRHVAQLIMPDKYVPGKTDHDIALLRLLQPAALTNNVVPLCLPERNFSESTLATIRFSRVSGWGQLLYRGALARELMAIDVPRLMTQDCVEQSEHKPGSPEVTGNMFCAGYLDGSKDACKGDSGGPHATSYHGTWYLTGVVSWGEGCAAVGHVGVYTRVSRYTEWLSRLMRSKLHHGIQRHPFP
Description: as §1
Rabbit plasma-derived factor VII (American Diagnostica) was diluted in the same buffer as in Example 1 at concentration levels of 50, 100 200, 400 nM, thereafter was injected under the same conditions as in Example 1 into the same chip containing the immobilized aptamer.

B1: anti-human FVII aptamer (SEQ no 1) (ssRNA)
RNA: GGGAGAGAGGAAGAGGGAUGGGAGCCUAUGUAACAGAUGCAGAUCCCUAGUCGUCCCAACACCAUAAC
modifications: 2'-OMe at bases shown in bold in the patent (positions not recoverable from text); 3'-biotin
The Kd is a measure of binding affinity in units of concentration. As to B1, the Kd in series [1] is 1400 nM. Moreover, in series [2], the binding result is “no binding”.
